Assay results: patent US20120264212

Tested on: T1, Dab2 N-terminal phosphotyrosine binding (N-PTB) domain, residues 1-241 of human Disabled-2, wild type
T1 sequence: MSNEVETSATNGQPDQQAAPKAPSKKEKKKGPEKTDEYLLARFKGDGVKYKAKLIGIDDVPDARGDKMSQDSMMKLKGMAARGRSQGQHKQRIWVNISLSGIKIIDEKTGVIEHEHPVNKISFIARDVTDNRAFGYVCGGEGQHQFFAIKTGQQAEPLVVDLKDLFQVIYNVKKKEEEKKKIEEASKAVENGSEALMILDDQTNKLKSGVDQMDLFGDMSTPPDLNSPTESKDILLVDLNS

thrombin
thrombin limited proteolysis (SDS-PAGE): thrombin cleaved the N-PTB domain leaving a ˜25 kDa protease-resistant product
